Laboratory results taken from patent publication US20240218052A1.

Target: SARS CoV-2 parental (Wuhan-Hu-1) receptor binding domain (RBD) protein, amino acids 319 to 541 of th (SARS-CoV-2, Wuhan-Hu-1 isolate), P0DTC2
Experiment: ELISA, antigen coated, chimeric IgG1 titrated, anti-human Fc-HRP
Details: remark: other sources report otherwise

Row | Binder | EC50 [nM]
1 | SKD chimeric bovine-human IgG1 (ultralong CDR3) (antibody) VH: QVQLRESGPSLVKPSQTLSLTCTASGFSLSDKAVGWVRQAPGKALEWLGSIDTGGNTGYNPGLKSRLSITKDNSKSQVSLSVSSVTTEDSATYYCTTVHQRTSEKRSCPGGSSRRYPSGASCDVSGGACACYVSNCRGVLCPTLNEIVAYTYEWHVDAWGQGLLVTVSS VL: QAVLNQPSSVSGSLGQRVSITCSGSSSNVGNGYVSWYQLIPGSAPRTLIYGDTSRASGVPDRFSGSRSGNTATLTISSLQAEDEADYFCASAEDSSSNAVFGSGTTLTVL | 0.19
2 | SKM chimeric bovine-human IgG1 (ultralong CDR3) (antibody) VH: QVQLRESGPSLVKPSQTLSLTCTASGFSLSDKAVGWVRQAPGKALEWLGSIDTGGNTGYNPGLKSRLSITKDNSKSQVSLSVSSVTTEDSATYYCTTVHQETLRSCPDGYIDNSGCTADWGCAALDCWRRRFGYHSTDPSHYTGATYIYTYSLHIDAWGQGLLVTVSS VL: QAVLNQPSSVSGSLGQRVSITCSGSSSNVGNGYVSWYQLIPGSAPRTLIYGDTSRASGVPDRFSGSRSGNTATLTISSLQAEDEADYFCASAEDSSSNAVFGSGTTLTVL | 0.24
